Measurements as given in US20180291082A1 (IMMATICS BIOTECHNOLOGIES, published 2018).

Molecular target: T1, HLA-A*01:01 (human)
T1 construct: Peptide-receptive MHC monomer made by UV cleavage of a UV-sensitive peptide
Assay: UV-ligand exchange, anti-b2m ELISA; exchange yield grade (+ >10%, ++ >20%, +++ >50, ++++ >75%)
Excerpt: (§1) Candidate peptides for T cell based therapies according to the present invention were further tested for their MHC binding capacity (affinity). The individual peptide-MHC complexes were produced by UV-ligand exchange, where a UV-sensitive peptide is cleaved upon UV-irradiation, and exchanged with the peptide of interest as analyzed. Only peptide candidates that can effectively bind and stabilize the peptide-receptive MHC molecules prevent dissociation of the MHC complexes. To determine the yield of the exchange reaction, an ELISA was performed based on the detection of the light chain (β2m) of stabilized MHC complexes. The assay was performed as generally described in Rodenko et al. (Rodenko et al., 2006).
(§2) 96 well MAXISorp plates (NUNC) were coated over night with 2 ug/ml streptavidin in PBS at room temperature, washed 4× and blocked for 1 h at 37° C. in 2% BSA containing blocking buffer. Refolded HLA-A*02:01/MLA-001 monomers served as standards, covering the range of 15-500 ng/ml. Peptide-MHC monomers of the UV-exchange reaction were diluted 100-fold in blocking buffer. Samples were incubated for 1 h at 37° C., washed four times, incubated with 2 ug/ml HRP conjugated anti-β2m for 1 h at 37° C., washed again and detected with TMB solution that is stopped with […]. Absorption was measured at 450 nm. Candidate peptides that show a high exchange yield (preferably higher than 50%, most preferred higher than 75%) are generally preferred for a generation and production of antibodies or fragments thereof, and/or T cell receptors or fragments thereof, as they show sufficient avidity to the MHC molecules and prevent dissociation of the MHC complexes.

RSDPVTLDV and RSDPVTLNV fall in the same range of peptide exchange yield: 50 to 75% for the first, 50 to 75% for the second.

First: ITAQNHGY
Second: LSAGSGPGQY
The peptide exchange yield of the first is lower: 20 to 50% for the first, 50 to 75% for the second.

Compared with ITFGERFEY, GSTMVEHNY is lower in peptide exchange yield: 50 to 75% for the first, 20 to 50% for the second.

YTERDGSAMVY and LTDYLKNTY fall in the same range of peptide exchange yield: 50 to 75% for the first, 50 to 75% for the second.

Compared with LSLIDRLVLY, YTDKLQHY is higher in peptide exchange yield: 20 to 50% for the first, 50 to 75% for the second.

EVSNGKWLLY showed a peptide exchange yield of 50 to 75%.

Molecular target: T2, HLA-A*03:01 (human)
T2 construct: Peptide-receptive MHC monomer made by UV cleavage of a UV-sensitive peptide
Assay: as above
Excerpt: as §1, §2

First: ATMQSKLIQK
Second: ALLGVIIAK
The peptide exchange yield of the first is higher: 50 to 75% for the first, 20 to 50% for the second.

GVIIAKKYFFK and IIAKKYFFK fall in the same range of peptide exchange yield: 20 to 50% for the first, 20 to 50% for the second.

STQDTLLIK and GSAALYLLR fall in the same range of peptide exchange yield: 20 to 50% for the first, 20 to 50% for the second.

RLSPNDQYK and KIIAPLVTR fall in the same range of peptide exchange yield: 20 to 50% for the first, 20 to 50% for the second.

GTESGTILK and KIKEHVRSK fall in the same range of peptide exchange yield: 20 to 50% for the first, 20 to 50% for the second.

KMMADYGIRK and RIYNGIGVSR fall in the same range of peptide exchange yield: 50 to 75% for the first, 50 to 75% for the second.

Compared with KLFGTSGQK, AVATKFVNK is lower in peptide exchange yield: 50 to 75% for the first, 20 to 50% for the second.

First: GSYSALLAKK
Second: KVLGPNGLLK
The peptide exchange yield of the first is higher: 50 to 75% for the first, 20 to 50% for the second.

STTKLYLAK and VLGPNGLLK fall in the same range of peptide exchange yield: 20 to 50% for the first, 20 to 50% for the second.

First: ATYEGIQKK
Second: ATALSLSNK
The peptide exchange yield of the first is lower: 20 to 50% for the first, 50 to 75% for the second.

First: ATAYGSTVSK
Second: ATWSASLKNK
The peptide exchange yield of the first is lower: 20 to 50% for the first, 50 to 75% for the second.

First: KLGNNPVSK
Second: KSFDRHFEK
The peptide exchange yield of the first is lower: 20 to 50% for the first, 50 to 75% for the second.

Compared with QLYSKFLLK, QVPTFTIPK is lower in peptide exchange yield: 50 to 75% for the first, 20 to 50% for the second.

First: SAFGYVFPK
Second: SSASLAHMK
The peptide exchange yield of the first is higher: 50 to 75% for the first, 20 to 50% for the second.

STKSTSPPK and STNNEGNLK fall in the same range of peptide exchange yield: 20 to 50% for the first, 20 to 50% for the second.

STSHHLVSR and SVKLQGTSK fall in the same range of peptide exchange yield: 20 to 50% for the first, 20 to 50% for the second.

Compared with TAYGSTVSK, TVASLHTEK is lower in peptide exchange yield: 50 to 75% for the first, 20 to 50% for the second.

First: KMAAWPFSR
Second: KTPSGALHRK
The peptide exchange yield of the first is higher: 50 to 75% for the first, 20 to 50% for the second.

First: SSYSRSSAVK
Second: MLLQQPLIY
The peptide exchange yield of the first is higher: 50 to 75% for the first, 20 to 50% for the second.

Compared with GSRLGKYYVK, AVLDLGSLLAK is higher in peptide exchange yield: 10 to 20% for the first, 50 to 75% for the second.

Compared with ALDKPGKSK, KTYVGHPVKM is higher in peptide exchange yield: 20 to 50% for the first, 50 to 75% for the second.

In the case of RLFESSFHY, the peptide exchange yield is reported as 50 to 75%.
